The series concerns the target T1, GST-AcbHLH144 (pineapple, UniProt A0A6P5FRB5 1-240).
T1 sequence: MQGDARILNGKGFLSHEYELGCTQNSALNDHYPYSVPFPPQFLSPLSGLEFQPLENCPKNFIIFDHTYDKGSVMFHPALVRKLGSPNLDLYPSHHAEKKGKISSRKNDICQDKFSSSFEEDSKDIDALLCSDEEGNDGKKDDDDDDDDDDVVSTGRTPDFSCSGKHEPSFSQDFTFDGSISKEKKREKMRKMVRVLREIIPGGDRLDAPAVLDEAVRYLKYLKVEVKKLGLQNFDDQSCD
The series can be described thus: EMSA; Chemiluminescent EMSA Kit (Beyotime); buffer, salt, pH and temperature not stated. The settings on record: protein: recombinant; tags: N-terminal GST (pGEX-4T-1); chain copies: 2; label: biotin; blunt. (In general: In EMSA bound probe runs differently from free probe, usually more slowly.)

B1: Ac4CL5 promoter N-box probe (dsDNA)
DNA 1: CGGAGCACCTGCCCCTGCACGAGTACTGCTTCGAGCAGCT
DNA 2: AGCTGCTCGAAGCAGTACTCGTGCAGGGGCAGGTGCTCCG
With B1, the binding result was “binds”.
